Numbering of substitutions follows the chain as printed. Names and notes keep the numbering of the source.
B1: AtCOMT (Arabidopsis thaliana) (protein)
chain: MGSTAETQLTPVQVTDDEAALFAMQLASASVLPMALKSALELDLLEIMAKNGSPMSPTEIASKLPTKNPEAPVMLDRILRLLTSYSVLTCSNRKLSGDGVERIYGLGPVCKYLTKNEDGVSIAALCLMNQDKVLMESWYHLKDAILDGGIPFNKAYGMSAFEYHGTDPRFNKVFNNGMSNHSTITMKKILETYKGFEGLTSLVDVGGGIGATLKMIVSKYPNLKGINFDLPHVIEDAPSHPGIEHVGGDMFVSVPKGDAIFMKWICHDWSDEHCVKFLKNCYESLPEDGKVILAECILPETPDSSLSTKQVVHVDCIMLAHNPGGKERTEKEFEALAKASGFKGIKVVCDAFGVNLIELLKKL
B2: AtCOMT (Arabidopsis thaliana; H313A) (protein)
chain: B1 chain with H313A
B3: AtCOMT (Arabidopsis thaliana; F174L/H313A/N129V) (protein)
chain: B1 chain with N129V, F174L, H313A
B4: AtCOMT (Arabidopsis thaliana; F174L) (protein)
chain: B1 chain with F174L
B5: AtCOMT (Arabidopsis thaliana; H313A/N129V) (protein)
chain: B1 chain with N129V, H313A
B6: AtCOMT (Arabidopsis thaliana; N129V) (protein)
chain: B1 chain with N129V

Substrate: O=C(O)/C=C/c1ccc(O)c(O)c1
Assay: purified protein
Details: co-substrate SAM
[1] = optimal conditions (30°C, pH 8.0)
[2] = optimal conditions (35°C, pH 8.0)

| Protein | kcat (optimal conditions) | kcat/Km (optimal conditions) | further results |
| --- | --- | --- | --- |
| B1 |  |  | kcat [1]: 0.327 s⁻¹; kcat/Km [1]: 482 M⁻¹ s⁻¹ |
| B2 | 0.4 s⁻¹ | 606 M⁻¹ s⁻¹ |  |
| B3 |  |  | kcat [2]: 0.475 s⁻¹; kcat/Km [2]: 2020 M⁻¹ s⁻¹ |
| B4 | 0.369 s⁻¹ | 1120 M⁻¹ s⁻¹ |  |
| B5 | 0.498 s⁻¹ | 1390 M⁻¹ s⁻¹ |  |
| B6 | 0.458 s⁻¹ | 828 M⁻¹ s⁻¹ |  |

Source: PMC11968058
